According to PMC5716219:

Columns and labels:
[1] = molecular target: T1, CST complex (CTC1-STN1-TEN1) (human, UniProt Q2NKJ3;Q9H668;Q86WV5 1-1217;1-368;1-123); test: EMSA
[2] = molecular target: T1, CST complex (CTC1-STN1-TEN1); test: EMSA; remark: listed apart in the source
[3] = molecular target: T1, CST complex (CTC1-STN1-TEN1); test: EMSA; remark: listed apart in the source
[4] = molecular target: T1, CST complex (CTC1-STN1-TEN1); test: EMSA; remark: listed apart in the source
[5] = molecular target: T1, CST complex (CTC1-STN1-TEN1); test: smFRET
[6] = molecular target: T1, CST complex (CTC1-STN1-TEN1); test: EMSA; remark: listed apart in the source
[7] = molecular target: T1, CST complex (CTC1-STN1-TEN1); test: smFRET; remark: listed apart in the source
[8] = molecular target: T1, CST complex (CTC1-STN1-TEN1); test: EMSA; remark: listed apart in the source

T1 sequence (Q2NKJ3 whole entry, chain 1 of 3): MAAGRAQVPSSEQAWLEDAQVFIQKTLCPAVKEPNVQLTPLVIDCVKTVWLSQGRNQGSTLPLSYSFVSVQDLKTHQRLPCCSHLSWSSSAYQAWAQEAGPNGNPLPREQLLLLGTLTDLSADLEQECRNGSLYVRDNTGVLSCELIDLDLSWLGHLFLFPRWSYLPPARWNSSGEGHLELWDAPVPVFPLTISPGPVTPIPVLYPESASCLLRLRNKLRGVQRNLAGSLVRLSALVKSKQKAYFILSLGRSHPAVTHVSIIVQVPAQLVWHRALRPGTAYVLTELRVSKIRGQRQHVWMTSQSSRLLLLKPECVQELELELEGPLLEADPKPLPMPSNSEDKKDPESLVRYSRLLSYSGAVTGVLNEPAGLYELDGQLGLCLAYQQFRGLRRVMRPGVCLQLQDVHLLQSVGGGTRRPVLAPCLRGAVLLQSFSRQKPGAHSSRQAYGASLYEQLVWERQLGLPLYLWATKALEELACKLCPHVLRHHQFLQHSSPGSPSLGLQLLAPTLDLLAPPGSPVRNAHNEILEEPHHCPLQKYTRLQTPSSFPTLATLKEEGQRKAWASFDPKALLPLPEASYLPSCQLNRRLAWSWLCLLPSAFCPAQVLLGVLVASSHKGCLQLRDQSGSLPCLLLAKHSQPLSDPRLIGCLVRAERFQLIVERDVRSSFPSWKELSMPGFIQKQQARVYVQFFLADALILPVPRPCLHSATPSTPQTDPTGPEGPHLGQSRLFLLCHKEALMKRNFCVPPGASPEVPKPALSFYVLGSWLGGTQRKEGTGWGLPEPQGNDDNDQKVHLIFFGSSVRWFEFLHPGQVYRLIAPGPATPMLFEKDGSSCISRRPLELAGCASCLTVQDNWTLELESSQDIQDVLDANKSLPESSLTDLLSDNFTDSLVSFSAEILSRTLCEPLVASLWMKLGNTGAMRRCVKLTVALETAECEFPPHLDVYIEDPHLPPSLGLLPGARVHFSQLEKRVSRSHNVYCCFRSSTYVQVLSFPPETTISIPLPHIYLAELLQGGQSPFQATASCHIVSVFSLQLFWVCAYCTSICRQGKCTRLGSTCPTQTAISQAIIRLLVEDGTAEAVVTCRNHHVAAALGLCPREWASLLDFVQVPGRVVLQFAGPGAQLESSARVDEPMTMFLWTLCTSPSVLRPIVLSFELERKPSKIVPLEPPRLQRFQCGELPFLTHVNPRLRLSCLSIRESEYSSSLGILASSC
T1 sequence (Q9H668 whole entry, chain 2 of 3): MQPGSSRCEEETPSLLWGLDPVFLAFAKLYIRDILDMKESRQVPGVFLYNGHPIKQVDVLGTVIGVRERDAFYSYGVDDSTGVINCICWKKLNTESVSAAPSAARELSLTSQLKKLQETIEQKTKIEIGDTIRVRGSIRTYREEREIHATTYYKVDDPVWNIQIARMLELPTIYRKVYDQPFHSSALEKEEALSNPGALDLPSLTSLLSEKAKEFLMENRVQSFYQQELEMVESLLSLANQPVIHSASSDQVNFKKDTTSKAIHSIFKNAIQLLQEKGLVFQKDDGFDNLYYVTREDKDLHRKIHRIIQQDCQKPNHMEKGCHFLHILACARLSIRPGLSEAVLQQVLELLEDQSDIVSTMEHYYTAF
T1 sequence (Q86WV5 whole entry, chain 3 of 3): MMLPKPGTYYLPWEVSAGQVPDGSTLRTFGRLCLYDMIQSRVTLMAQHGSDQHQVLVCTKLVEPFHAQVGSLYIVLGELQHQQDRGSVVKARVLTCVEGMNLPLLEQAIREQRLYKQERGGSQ

GGTTAGGGTTAGGGTTAG (ssDNA) [Tel 18]: binds [1].

B1: Telomere fold-back 18 nt 3' overhang (structured_DNA)
DNA: CTAACCGCATCTAGCTTTTTGCTAGATGCGGTTAGGGTTAGGGTTAGGGTTAG
B1: binds [2].

ACGACTGCATCTAGCTTTTTGCTAGATGCAGTCGT (structured_DNA) [Non-Tel fold-back (dsDNA), no overhang]: no binding [3].

B2: Two-oligonucleotide junction 32/22 (mixed)
DNA 1: GCGTACTCAGTGACTCAGATCGAGCGTATCCG
DNA 2: CGATCTGAGTCACTGAGTACGC
B2: binds [4].

B3: Non-Tel fold-back 18 nt 3' overhang (structured_DNA)
DNA: ACGACTGCATCTAGCTTTTTGCTAGATGCAGTCGTAGCGTATCCGTTCAGTTG
B3: binds [2].

B4: smFRET 3G46-Cy3 (mixed)
DNA 1: TGGCGACGGCAGCGAGGCTTAGGGTTAGGGTTAGGGTTAGGGAGCGTA
DNA 2: GCCTCGCTGCCGTCGCCA
B4: binds [5].

B5: Mixed fold-back 18 nt 3' overhang (structured_DNA)
DNA: ACGACTGCATCTAGCTTTTTGCTAGATGCAGTCGTGGTTAGGGTTAGGGTTAG
B5: binds [3].

TTAGGGTTAGGGTTAGGGTTAGGGTTAGGG (structured_DNA) [3G5 (G5 in text)]: binds [6].

TTAGGGTTAGGGTTAGGGTTAGGG (structured_DNA) [3G4]: binds [6].

GGGTTAGGGTTAGGGTTAGGG (structured_DNA) [G4]: binds [6].

TTAGGGTTAGGGTTAGGGTTAGGGAGCGTA (structured_DNA) [3G46]: binds [6].

B6: smFRET 3G4-Cy3 (mixed)
DNA 1: TGGCGACGGCAGCGAGGCTTAGGGTTAGGGTTAGGGTTAGGG
DNA 2: GCCTCGCTGCCGTCGCCA
B6: binds [5].

AGCGTATCCGTTCAGTTG (ssDNA) [Non-Tel 18]: no binding [3].

B7: smFRET non-telomeric junction, 18 nt overhang (mixed)
DNA 1: TGGCGACGGCAGCGAGGCAGCGTATCCGTTCAGTTG
DNA 2: GCCTCGCTGCCGTCGCCA
B7: binds [7].

CGATCTGAGTCACTGAGTACGC (ssDNA) [Non-Tel 22]: no binding [8].
